{"source": "paper PMC12355088", "about": "“Structural analysis of TRIM family PRYSPRY domains and its implications for E3-ligand design” (Journal of Structural Biology: X, 2025)", "molecular_target": "the molecule itself", "experiment": "SEC; Superdex-75 column, elution compared with marker proteins (BSA, ovalbumin, carbonic anhydrase, ribonuclease A)"}
{"protein": "TRIM36 PRYSPRY domain (domain or fragment, human, PRYSPRY domain of human TRIM36, with an additional C-terminal helix; theoretical MW of the dimer 52.4 kDa; Cloned into pNIC-CTH0; also called TRIM36 domain) TPPAPVFSFLFDEKCGYNNEHLLLNLKRDRVESRAGFNLLLAAERIQVGYYTSLDYIIGDTGITKGKHFWAFRVEPYSYLVKVGVASSDKLQEWLRSPRDAVSPRYEQDSGHDSGSEDACFDSSQPFTLVTIGMQKFFIPKSPTSSNEPENRVLPMPTSIGIFLDCDKGKVDFYDMDQMKCLYERQVDCSHTLYPAFALMGSGGIQLEEPITAKYLEYQEDM", "values": [{"measurement": "stoichiometry N", "value": 2}]}
